# Measurements from patent US20170334973A1 (published 2017).
# Numbering of substitutions follows the chain as printed.
# T1: EBOV GPcl (Ebola virus (EBOV), UniProt Q05320 33-200; Q05320 502-632)
# T1 chain 1: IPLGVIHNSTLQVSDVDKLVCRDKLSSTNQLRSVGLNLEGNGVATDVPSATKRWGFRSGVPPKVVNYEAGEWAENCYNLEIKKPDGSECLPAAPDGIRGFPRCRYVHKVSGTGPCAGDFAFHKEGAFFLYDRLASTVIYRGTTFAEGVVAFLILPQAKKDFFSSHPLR
# T1 chain 2: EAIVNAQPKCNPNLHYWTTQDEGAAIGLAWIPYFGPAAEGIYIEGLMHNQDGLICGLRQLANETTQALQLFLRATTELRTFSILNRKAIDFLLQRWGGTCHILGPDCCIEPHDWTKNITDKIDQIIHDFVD
# T2: EBOV soluble GP (sGP) (Ebola virus (EBOV), UniProt P60170 33-324)
# T2 chain: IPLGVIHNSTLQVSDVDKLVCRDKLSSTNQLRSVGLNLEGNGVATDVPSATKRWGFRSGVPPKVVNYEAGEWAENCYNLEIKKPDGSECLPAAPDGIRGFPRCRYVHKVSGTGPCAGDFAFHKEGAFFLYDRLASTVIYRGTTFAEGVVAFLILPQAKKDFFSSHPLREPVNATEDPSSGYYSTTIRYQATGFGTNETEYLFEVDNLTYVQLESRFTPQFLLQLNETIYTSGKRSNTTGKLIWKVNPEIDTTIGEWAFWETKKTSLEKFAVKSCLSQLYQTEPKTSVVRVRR
# B1: FVM04 (antibody, V domains shown)
# VH: EVQLVQSGGGLVQPGGSMRLSCEASGLSLSDYFMHWVRQAQGKGLEWIGLIQTKAFTYKTEYPAAVKGRFTISRDDSKNTLYLQMSSLKPEDTALYYCIAVTPDFYYWGQGVLVTVSS
# VL: DVVMTQSPSFLSASVGDRVTITCRASQDITINLNWFQHKPGKAPKRLIYVASRLERGVPSRFSGSGSGTEFTLTISSLQPEDFATYYCQQYNNYPLTFGPGTKLDIKR
# B2: FVM13 (antibody, V domains shown)
# VH: EVQLVQSGAEVKRPGESLKISCKTSGYTFTSSWISWVRQMPGKGLEWLGSIYPGDSDTRYNPSFQGHVTISADTSIITTHLQWSSLKASDTATYYCVKGSETWGQGVLVTVSS
# VL: KPMLTQPTSLSASPGASASLTCTFSGGINVAGYNILWYQQKAGSPPRYLLRYKSDSTKDQGSGVPSRFSGSKDASANTGILRISGLQSEDEADYYCAIGHSSGWIFGGGTRLTVL
# B3: FVM09 (antibody, V domains shown)
# VH: EVQLVQSGAEVKRPGESLTISCKTSGYSFTDSWVAWVRQMPGKGLEWLGSIYPGDSETKYNPSFQGHVTISADKSVTTTYLKWSSLKASDTATYYCVKGSETWGQGVLVTVSS
# VL: B2 VL with K1Q, P2L, M3V, T8A
# B4: FVM20 (antibody, V domains shown)
# VH: B3 VH with Q6E, D31G, V34I, A35S
# VL: B2 VL with K1N, P2F, P7S, T8A, N34H, L36F, K41N, A42P, T57E
# B5: FVM01P (antibody, V domains shown)
# VH: QVQLQESGPGLVKPSETLSLTCTVSGASISNYRWNWIRQPPGKGLEWIGEINGYSGSTNYNPSLKSRVTISKDASKNQFSLKLTSVTAADTAVYYCPIIGGFTLEWFDVWGPGVLVTVSS
# VL: DVVLTQSPSSLSASVGDRVTITCRASQGIRNYLNWYQQKPRKAPKLLIYAASSLQSGVPSRFSGSGSGTEFTLTISSLQAEDFATYYCLQGYRTPFTFGPGTKLDIKR
# B6: FVM02P (antibody, V domains shown)
# VH: EVQLVESGGGLVQPGGSLRLSCAASGFTGFTFSDYAFYWVRQAPGKGLEWVGFIRGKAYGGTADYAASVKGRFTISRDNSKNTAYLQMSSLKTEDSAVYYCTSQGVTVATPYHWGQGVLVTVSS
# VL: DIVLTQSPLSLPVTPGEPASISCRSSQSLLHSGGKTYLYWYLQKPGQSPQLLIHEVSNRASGVPDRFSGSGSGTDFTLKISRVEAEDVGVYYCMQGIQLPLTFGGGTKVEIKR
# Experiments:
# Test in all cases: ELISA
# EBOV GP[change] = EBOV GP[change] (Ebola virus (EBOV), UniProt Q05320)
# EBOV GPcl = target: T1, EBOV GPcl
# EBOV soluble GP (sGP) = target: T2, EBOV soluble GP (sGP)
Binder,EC50 (EBOV GP[change]),EC50 (EBOV GPcl),EC50 (EBOV soluble GP (sGP))
B1,12 ng/mL,8 ng/mL,7 ng/mL
B2,3 ng/mL,> 10000 ng/mL,5 ng/mL
B3,5 ng/mL,–,17 ng/mL
B4,7 ng/mL,> 10000 ng/mL,23 ng/mL
B5,9 ng/mL,5 ng/mL,5 ng/mL
B6,10 ng/mL,5 ng/mL,–
